These are literature values, as cited in patent publication US20070032474A1, “Use of a compound of formula 1 for making a pharmaceutical composition” (priority 2003, published 2007).

The target in this series is PKBbeta (Homo sapiens, UniProt P31751). The note with it: background, reference (5); read-out: AC50 (activation of PKBbeta).
Chain of PKBbeta (P31751 146-460 limits assumed, species assumed): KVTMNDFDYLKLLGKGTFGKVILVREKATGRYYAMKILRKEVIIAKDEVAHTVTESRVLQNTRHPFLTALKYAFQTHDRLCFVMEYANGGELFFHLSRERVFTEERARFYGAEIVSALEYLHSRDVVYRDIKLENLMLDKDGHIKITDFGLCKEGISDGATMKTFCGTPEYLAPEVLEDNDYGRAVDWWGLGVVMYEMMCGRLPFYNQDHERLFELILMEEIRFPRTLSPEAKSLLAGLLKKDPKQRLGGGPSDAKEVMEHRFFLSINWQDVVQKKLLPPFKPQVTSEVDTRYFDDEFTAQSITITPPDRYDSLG

On to “polypeptide NH2-REPRILSEEEQEMFRDFDYIADW-COOH comprising a hydrophobic motif; activates AGC kinases (H-REPRILSEEEQEMFRDFDYIADW-OH) [PIFtide]”, for which the AC50 is 5 µM.

The term AC50 denotes the concentration at which the activity in the assay is half-maximal.
